Substrate in the series: N[C@@H](CCC(=O)N[C@H](CSc1ccc([N+](=O)[O-])cc1[N+](=O)[O-])C(=O)NCC(=O)O)C(=O)O
In words: TP_TRANSPORTER: uptake in membrane vesicle from MRP1-expressing HeLa cells. The format is functional, cell membranes.

B1: Multidrug resistance-associated protein 1 (Homo sapiens) (protein)
chain: MALRGFCSADGSDPLWDWNVTWNTSNPDFTKCFQNTVLVWVPCFYLWACFPFYFLYLSRHDRGYIQMTPLNKTKTALGFLLWIVCWADLFYSFWERSRGIFLAPVFLVSPTLLGITMLLATFLIQLERRKGVQSSGIMLTFWLVALVCALAILRSKIMTALKEDAQVDLFRDITFYVYFSLLLIQLVLSCFSDRSPLFSETIHDPNPCPESSASFLSRITFWWITGLIVRGYRQPLEGSDLWSLNKEDTSEQVVPVLVKNWKKECAKTRKQPVKVVYSSKDPAQPKESSKVDANEEVEALIVKSPQKEWNPSLFKVLYKTFGPYFLMSFFFKAIHDLMMFSGPQILKLLIKFVNDTKAPDWQGYFYTVLLFVTACLQTLVLHQYFHICFVSGMRIKTAVIGAVYRKALVITNSARKSSTVGEIVNLMSVDAQRFMDLATYINMIWSAPLQVILALYLLWLNLGPSVLAGVAVMVLMVPVNAVMAMKTKTYQVAHMKSKDNRIKLMNEILNGIKVLKLYAWELAFKDKVLAIRQEELKVLKKSAYLSAVGTFTWVCTPFLVALCTFAVYVTIDENNILDAQTAFVSLALFNILRFPLNILPMVISSIVQASVSLKRLRIFLSHEELEPDSIERRPVKDGGGTNSITVRNATFTWARSDPPTLNGITFSIPEGALVAVVGQVGCGKSSLLSALLAEMDKVEGHVAIKGSVAYVPQQAWIQNDSLRENILFGCQLEEPYYRSVIQACALLPDLEILPSGDRTEIGEKGVNLSGGQKQRVSLARAVYSNADIYLFDDPLSAVDAHVGKHIFENVIGPKGMLKNKTRILVTHSMSYLPQVDVIIVMSGGKISEMGSYQELLARDGAFAEFLRTYASTEQEQDAEENGVTGVSGPGKEAKQMENGMLVTDSAGKQLQRQLSSSSSYSGDISRHHNSTAELQKAEAKKEETWKLMEADKAQTGQVKLSVYWDYMKAIGLFISFLSIFLFMCNHVSALASNYWLSLWTDDPIVNGTQEHTKVRLSVYGALGISQGIAVFGYSMAVSIGGILASRCLHVDLLHSILRSPMSFFERTPSGNLVNRFSKELDTVDSMIPEVIKMFMGSLFNVIGACIVILLATPIAAIIIPPLGLIYFFVQRFYVASSRQLKRLESVSRSPVYSHFNETLLGVSVIRAFEEQERFIHQSDLKVDENQKAYYPSIVANRWLAVRLECVGNCIVLFAALFAVISRHSLSAGLVGLSVSYSLQVTTYLNWLVRMSSEMETNIVAVERLKEYSETEKEAPWQIQETAPPSSWPQVGRVEFRNYCLRYREDLDFVLRHINVTINGGEKVGIVGRTGAGKSSLTLGLFRINESAEGEIIIDGINIAKIGLHDLRFKITIIPQDPVLFSGSLRMNLDPFSQYSDEEVWTSLELAHLKDFVSALPDKLDHECAEGGENLSVGQRQLVCLARALLRKTKILVLDEATAAVDLETDDLIQSTIRTQFEDCTVLTIAHRLNTIMDYTRVIVLDKGEIQEYGAPSDLLQQRGLFYSMAKDAGLV
Turning to B1, the Michaelis-Menten constant (Km) was determined as 3.6 µM.

One may read the Km as the concentration of substrate that gives half-maximal velocity.

Values taken from ChEMBL document CHEMBL2074072, “Transport of glutathione, glucuronate, and sulfate conjugates by the MRP gene-encoded conjugate export pump” (Cancer Res, 1996).
